Test results taken from PMC9482650, “Quantitative fragmentomics allow affinity mapping of interactomes” (Nature Communications, 2022).

T1: DFNB31_2, Q9P202
T1 sequence (Q9P202 274-371, limits assumed, looked up): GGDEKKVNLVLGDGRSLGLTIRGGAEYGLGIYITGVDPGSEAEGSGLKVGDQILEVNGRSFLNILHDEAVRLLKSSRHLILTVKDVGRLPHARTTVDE

T2: GRIP1_2, Q9Y3R0
T2 sequence (Q9Y3R0 145-248, limits assumed, looked up): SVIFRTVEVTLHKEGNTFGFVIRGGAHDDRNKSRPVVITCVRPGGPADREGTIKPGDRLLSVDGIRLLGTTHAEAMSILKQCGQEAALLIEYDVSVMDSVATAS

T3: GRIP1_7, Q9Y3R0
T3 sequence (Q9Y3R0 999-1096, limits assumed, looked up): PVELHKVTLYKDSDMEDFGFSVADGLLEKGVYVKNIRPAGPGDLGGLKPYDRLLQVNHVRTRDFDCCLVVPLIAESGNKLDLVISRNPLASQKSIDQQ

T4: LRRC7, Q96NW7
T4 sequence (Q96NW7 1440-1537, limits assumed, looked up): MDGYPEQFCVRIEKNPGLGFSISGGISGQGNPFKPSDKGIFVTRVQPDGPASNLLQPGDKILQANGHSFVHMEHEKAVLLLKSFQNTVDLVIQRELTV

T5: MPDZ_10, O75970
T5 sequence (O75970 1624-1722, limits assumed, looked up): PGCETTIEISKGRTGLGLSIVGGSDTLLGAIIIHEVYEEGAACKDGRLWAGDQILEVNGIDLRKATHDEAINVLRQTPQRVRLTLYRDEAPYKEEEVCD

T6: MPDZ_5, O75970
T6 sequence (O75970 695-796, limits assumed, looked up): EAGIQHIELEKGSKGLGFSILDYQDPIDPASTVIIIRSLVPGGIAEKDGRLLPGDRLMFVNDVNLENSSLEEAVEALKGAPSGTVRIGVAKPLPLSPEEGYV

T7: MPP6, Q9NZW5
T7 sequence (Q9NZW5 125-219, limits assumed, looked up): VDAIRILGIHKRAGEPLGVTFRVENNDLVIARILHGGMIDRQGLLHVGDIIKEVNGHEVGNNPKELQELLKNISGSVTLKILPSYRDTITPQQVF

T8: MPP7, Q5T2T1
T8 sequence (Q5T2T1 134-230, limits assumed, looked up): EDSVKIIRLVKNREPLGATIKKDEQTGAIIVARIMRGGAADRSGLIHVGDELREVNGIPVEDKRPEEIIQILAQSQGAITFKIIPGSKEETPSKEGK

T9: RADIL, Q96JH8
T9 sequence (Q96JH8 971-1071, limits assumed, looked up): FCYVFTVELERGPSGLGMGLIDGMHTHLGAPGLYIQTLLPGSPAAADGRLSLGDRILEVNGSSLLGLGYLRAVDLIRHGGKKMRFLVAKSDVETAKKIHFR

T10: RAPGEF6, Q8TEU7
T10 sequence (Q8TEU7 525-625, limits assumed, looked up): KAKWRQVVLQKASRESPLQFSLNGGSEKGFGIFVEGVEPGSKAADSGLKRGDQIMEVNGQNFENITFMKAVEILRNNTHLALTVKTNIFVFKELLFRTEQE


Assays:
Assay in all cases: holdup assay
Set-up in all cases: key: below the threshold = too weak to quantify, mostly under pKd 3.1 to 4
Settings in all cases: plain residues with an end cap or a label only (N-terminal biotin on a linker: ado-ado)
[1] = target: CASK, O14936
Chain of CASK, O14936 (O14936 487-570): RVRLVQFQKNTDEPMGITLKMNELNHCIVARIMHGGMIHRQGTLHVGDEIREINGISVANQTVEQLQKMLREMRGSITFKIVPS

[2] = target: T1, DFNB31_2, Q9P202
[3] = target: DLG4_3, P78352
Chain of DLG4_3, P78352 (P78352 306-403): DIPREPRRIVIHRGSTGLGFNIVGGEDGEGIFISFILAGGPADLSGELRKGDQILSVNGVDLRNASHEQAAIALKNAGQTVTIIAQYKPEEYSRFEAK

[4] = target: FRMPD2_3, Q68DX3
Chain of FRMPD2_3, Q68DX3 (Q68DX3 1073-1166): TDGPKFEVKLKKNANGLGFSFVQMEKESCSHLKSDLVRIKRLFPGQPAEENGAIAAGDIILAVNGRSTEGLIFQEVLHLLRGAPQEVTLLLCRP

[5] = target: FRMPD4, Q14CM0
Chain of FRMPD4, Q14CM0 (Q14CM0 67-160): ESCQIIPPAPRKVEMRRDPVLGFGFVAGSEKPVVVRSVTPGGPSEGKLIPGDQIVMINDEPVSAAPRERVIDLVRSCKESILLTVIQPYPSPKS

[6] = target: GIPC2, Q8TF65
Chain of GIPC2, Q8TF65 (Q8TF65 112-203): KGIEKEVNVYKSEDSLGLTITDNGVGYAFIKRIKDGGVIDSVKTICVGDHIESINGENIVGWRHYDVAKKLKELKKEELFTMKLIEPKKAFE

[7] = target: T2, GRIP1_2, Q9Y3R0
[8] = target: T3, GRIP1_7, Q9Y3R0
[9] = target: GRIP2_6, Q9C0E4
Chain of GRIP2_6, Q9C0E4 (Q9C0E4 648-740): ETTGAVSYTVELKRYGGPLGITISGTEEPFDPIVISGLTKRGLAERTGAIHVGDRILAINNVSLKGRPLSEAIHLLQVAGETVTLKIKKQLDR

[10] = target: HTRA2, O43464
Chain of HTRA2, O43464 (O43464 355-458): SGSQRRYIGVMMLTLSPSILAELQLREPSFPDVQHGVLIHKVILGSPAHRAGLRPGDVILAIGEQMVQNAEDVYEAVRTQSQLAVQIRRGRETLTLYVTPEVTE

[11] = target: IL16_1, Q14005
Chain of IL16_1, Q14005 (Q14005 210-306): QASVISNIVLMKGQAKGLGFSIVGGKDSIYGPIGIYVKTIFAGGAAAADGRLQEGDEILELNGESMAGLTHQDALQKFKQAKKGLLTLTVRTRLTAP

[12] = target: Inadl_2, Q8NI35
Chain of Inadl_2, Q8NI35 (Q8NI35 238-335): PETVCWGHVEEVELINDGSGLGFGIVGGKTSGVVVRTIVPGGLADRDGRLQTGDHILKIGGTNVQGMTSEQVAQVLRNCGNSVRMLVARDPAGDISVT

[13] = target: Inadl_4, Q8NI35
Chain of Inadl_4, Q8NI35 (Q8NI35 547-651): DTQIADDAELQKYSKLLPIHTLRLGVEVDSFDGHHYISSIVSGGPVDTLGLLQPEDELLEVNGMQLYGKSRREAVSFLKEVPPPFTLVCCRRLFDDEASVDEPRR

[14] = target: LDB3, O75112
Chain of LDB3, O75112 (O75112 1-94): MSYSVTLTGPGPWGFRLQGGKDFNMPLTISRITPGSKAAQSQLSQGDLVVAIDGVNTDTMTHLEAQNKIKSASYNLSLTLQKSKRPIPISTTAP

[15] = target: T4, LRRC7, Q96NW7
[16] = target: MAGI2_3, Q86UL8
Chain of MAGI2_3, Q86UL8 (Q86UL8 600-682): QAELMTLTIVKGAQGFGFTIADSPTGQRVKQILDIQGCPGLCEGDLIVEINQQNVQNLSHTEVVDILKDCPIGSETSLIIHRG

[17] = target: MAGI2_5, Q86UL8
Chain of MAGI2_5, Q86UL8 (Q86UL8 915-1017): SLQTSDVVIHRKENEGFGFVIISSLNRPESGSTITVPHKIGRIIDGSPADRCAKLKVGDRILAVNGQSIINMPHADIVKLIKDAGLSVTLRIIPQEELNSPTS

[18] = target: MAGI3_2, Q5TCQ9
Chain of MAGI3_2, Q5TCQ9 (Q5TCQ9 398-503): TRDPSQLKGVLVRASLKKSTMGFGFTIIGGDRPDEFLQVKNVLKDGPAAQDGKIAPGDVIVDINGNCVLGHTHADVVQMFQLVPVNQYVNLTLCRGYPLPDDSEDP

[19] = target: MAST1, Q9Y2H9
Chain of MAST1, Q9Y2H9 (Q9Y2H9 962-1065): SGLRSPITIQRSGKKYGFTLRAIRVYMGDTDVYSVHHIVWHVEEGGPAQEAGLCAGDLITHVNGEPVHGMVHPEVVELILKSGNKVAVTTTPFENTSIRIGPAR

[20] = target: T5, MPDZ_10, O75970
[21] = target: T6, MPDZ_5, O75970
[22] = target: T7, MPP6, Q9NZW5
[23] = target: T8, MPP7, Q5T2T1
[24] = target: NHERF4_1, Q86UT5-2
Chain of NHERF4_1, Q86UT5-2 (Q86UT5 other isoform, or with tags, fused parts or gaps): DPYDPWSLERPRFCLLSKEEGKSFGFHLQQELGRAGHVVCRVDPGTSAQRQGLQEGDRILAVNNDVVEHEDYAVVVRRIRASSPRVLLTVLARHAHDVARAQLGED

[25] = target: PDZRN4_1, Q6ZMN7
Chain of PDZRN4_1, Q6ZMN7 (Q6ZMN7 213-318): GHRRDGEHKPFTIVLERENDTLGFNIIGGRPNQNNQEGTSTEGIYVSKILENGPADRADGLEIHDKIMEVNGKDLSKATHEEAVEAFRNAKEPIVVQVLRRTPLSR

[26] = target: PTPN3, P26045
Chain of PTPN3, P26045 (P26045 505-587): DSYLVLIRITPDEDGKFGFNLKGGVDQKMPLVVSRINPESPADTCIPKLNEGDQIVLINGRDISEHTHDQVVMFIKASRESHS

[27] = target: T9, RADIL, Q96JH8
[28] = target: T10, RAPGEF6, Q8TEU7

pKd [1] | pKd [2] | pKd [3] | pKd [4] | pKd [5] | pKd [6] | pKd [7] | pKd [8] | pKd [9] | pKd [10] | pKd [11] | pKd [12] | pKd [13] | pKd [14] | pKd [15] | pKd [16] | pKd [17] | pKd [18] | pKd [19] | pKd [20] | Binder | further results
below the threshold | below the threshold | below the threshold | below the threshold | below the threshold | below the threshold | below the threshold | below the threshold | below the threshold | below the threshold | below the threshold | below the threshold | below the threshold | below the threshold | below the threshold | below the threshold | below the threshold | below the threshold | below the threshold | 3.93 | SQPLLVHDDV [KIT, P10721] | pKd [21]: below the threshold; pKd [22]: below the threshold; pKd [23]: below the threshold; pKd [24]: below the threshold; pKd [25]: below the threshold; pKd [26]: below the threshold; pKd [27]: below the threshold; pKd [28]: below the threshold
below the threshold | below the threshold | below the threshold | below the threshold | below the threshold | below the threshold | below the threshold | below the threshold | below the threshold | below the threshold | below the threshold | below the threshold | below the threshold | below the threshold | below the threshold | below the threshold | below the threshold | below the threshold | 3.62 | below the threshold | PKSNSSKEYV [CLDN7, O95471] | pKd [21]: below the threshold; pKd [22]: below the threshold; pKd [23]: below the threshold; pKd [24]: below the threshold; pKd [25]: below the threshold; pKd [26]: below the threshold; pKd [27]: 4.07; pKd [28]: below the threshold

The remaining lines, values behind:

Binder | pKd [1] | pKd [2] | pKd [3] | pKd [4] | pKd [5] | pKd [6] | pKd [7] | pKd [8] | pKd [9] | pKd [10] | pKd [11] | pKd [12] | pKd [13] | pKd [14] | pKd [15] | pKd [16] | pKd [17] | pKd [18] | pKd [19] | pKd [20] | further results
DFKHTKSFII [JAM2, P57087] | below the threshold | below the threshold | below the threshold | below the threshold | below the threshold | below the threshold | below the threshold | below the threshold | 4.41 | 3.88 | below the threshold | below the threshold | below the threshold | below the threshold | below the threshold | below the threshold | below the threshold | below the threshold | 3.7 | below the threshold | pKd [21]: below the threshold; pKd [22]: below the threshold; pKd [23]: 3.75; pKd [24]: below the threshold; pKd [25]: below the threshold; pKd [26]: 3.81; pKd [27]: 4.21; pKd [28]: below the threshold
EFKQTSSFLV [JAM1, Q9Y624] | below the threshold | below the threshold | below the threshold | below the threshold | 3.76 | below the threshold | below the threshold | below the threshold | 4.35 | 3.78 | below the threshold | 3.56 | below the threshold | below the threshold | below the threshold | 3.54 | below the threshold | below the threshold | 3.56 | below the threshold | pKd [21]: below the threshold; pKd [22]: below the threshold; pKd [23]: 3.74; pKd [24]: 3.84; pKd [25]: below the threshold; pKd [26]: below the threshold; pKd [27]: 4.62; pKd [28]: below the threshold
